From paper PMC5749897
Like-named read-outs stand apart in the source and are kept apart here.

What was measured:
A4 [1] = test: flow cytometry or ELISA; conditions: read off a plot
AP33 [2] = test: flow cytometry or ELISA; conditions: read off a plot
HCV1 [3] = test: flow cytometry or ELISA; conditions: read off a plot
AR1A = test: flow cytometry
AR1B = test: flow cytometry
HCV1 [4] = test: flow cytometry; conditions: read off a plot
[5] = target: soluble WT E2c (E2 core domain); test: ELISA; conditions: first point of the titration, dilution 1/1; parent: est. 0.42; read off a plot
[6] = target: E1E2 F627A, ELISA antigen (transfected cell lysate) (hepatitis C virus genotype 1a, strain H77); test: ELISA
[7] = target: E1E2 I622A, ELISA antigen (transfected cell lysate) (hepatitis C virus genotype 1a, strain H77); test: ELISA
[8] = target: E1E2 D279A (H77 alanine-scanning library clone) (hepatitis C virus genotype 1a, strain H77); test: flow cytometry on cells
[9] = target: E1E2 G278A (H77 alanine-scanning library clone) (hepatitis C virus genotype 1a, strain H77); test: flow cytometry on cells
[10] = target: E1E2 I622A (H77 alanine-scanning library clone) (hepatitis C virus genotype 1a, strain H77); test: flow cytometry on cells
[11] = target: E1E2 W616A (H77 alanine-scanning library clone) (hepatitis C virus genotype 1a, strain H77); test: flow cytometry on cells
[12] = target: E1E2 Y276A (H77 alanine-scanning library clone) (hepatitis C virus genotype 1a, strain H77); test: flow cytometry on cells
[13] = target: E1E2 Y613A (plasmid H77c, no V5 tag) (hepatitis C virus genotype 1a, strain H77); test: flow cytometry on cells
[14] = target: CD81-Fc (K124T), a mutant that reduces CD81 dimerization (UniProt P60033); test: ELISA; conditions: first point of the titration, dilution 1/1; parent: est. 0.65; read off a plot
HCV1 [15] = test: ELISA; conditions: first point of the titration, dilution 1/100; parent: est. 1.3; read off a plot
[16] = target: recombinant CD81-LEL Fc-fusion protein; test: ELISA; conditions: first point of the titration, dilution 1/1; parent: est. 0.42; read off a plot
AP33 [17] = test: flow cytometry; conditions: read off a plot
AR2A = test: flow cytometry; conditions: read off a plot
AR3A = test: flow cytometry; conditions: read off a plot
A4 [18] = test: flow cytometry; conditions: read off a plot

CD81-Fc (K124T), a mutant that reduces CD81 dimerization, sequence (P60033 whole entry K124T, looked up, tested part not stated): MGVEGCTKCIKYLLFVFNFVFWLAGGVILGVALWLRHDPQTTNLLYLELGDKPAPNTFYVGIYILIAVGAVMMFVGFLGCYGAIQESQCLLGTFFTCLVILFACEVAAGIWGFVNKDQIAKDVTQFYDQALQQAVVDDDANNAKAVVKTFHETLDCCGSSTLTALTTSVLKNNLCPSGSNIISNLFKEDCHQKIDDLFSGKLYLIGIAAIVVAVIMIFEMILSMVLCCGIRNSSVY

wild-type HCV E1E2, plasmid H77c (no V5 tag) Q336A
percent of parent (A4 [1]): 88 % of WT
percent of parent (AP33 [2]): 80 % of WT
percent of parent (HCV1 [3]): 88 % of WT

wild-type HCV E1E2 (genotype 1a, strain H77) expression construct with C-terminal V5 epitope tag P544A
percent of parent (AR1A; read off a plot): 9 % of WT
percent of parent (AR1B; read off a plot): 5 % of WT
percent of parent (HCV1 [4]): 45 % of WT

recombinant CD81-LEL Fc-fusion protein K124T
response [5]: 0.65 OD450

recombinant CD81-LEL Fc-fusion protein (Fc fusion)
enhancement of binding over wild type [6]: 13%
enhancement of binding over wild type [7]: 56%
% CD81 binding (of wild type) [8]: 48%
% CD81 binding (of wild type) [9]: 50%
enhancement of binding over wild type [10]: 49%
% binding activity [11]: < 3%
% of wild-type reactivity (% of wild-type reactivity) [11]: < 25
% CD81 binding (of wild type) [12]: 50%
% binding activity [13]: < 3%
% of wild-type reactivity (% of wild-type reactivity) [13]: < 25

wild-type HCV E1E2 (genotype 1a, strain H77) expression construct with C-terminal V5 epitope tag P545A
percent of parent (AR1A; read off a plot): 18 % of WT
percent of parent (AR1B; read off a plot): 6 % of WT
percent of parent (HCV1 [4]): 92 % of WT

soluble WT E2c (E2 core domain) F627A
response [14]: 0.62 OD450
response (HCV1 [15]): 1.3 OD450
response [16]: 0.38 OD450

wild-type HCV E1E2, plasmid H77c (no V5 tag) C452A
percent of parent (A4 [1]): 93 % of WT
percent of parent (AP33 [2]): 60 % of WT
percent of parent (HCV1 [3]): 77 % of WT

wild-type HCV E1E2 (genotype 1a, strain H77) expression construct with C-terminal V5 epitope tag G440A
percent of parent (AP33 [17]): 81 % of WT
percent of parent (AR1A; read off a plot): 84 % of WT
percent of parent (AR2A): 82 % of WT
percent of parent (AR3A): 20 % of WT
percent of parent (HCV1 [4]): 84 % of WT

wild-type HCV E1E2, plasmid H77c (no V5 tag) T396A
percent of parent (A4 [1]): 85 % of WT
percent of parent (AP33 [2]): 68 % of WT
percent of parent (HCV1 [3]): 98 % of WT

wild-type HCV E1E2 (genotype 1a, strain H77) expression construct with C-terminal V5 epitope tag Y485A
percent of parent (AP33 [17]): 104 % of WT
percent of parent (AR1A; read off a plot): 43 % of WT

wild-type HCV E1E2, plasmid H77c (no V5 tag) R237A
percent of parent (A4 [1]): 82 % of WT
percent of parent (AP33 [2]): 110 % of WT
percent of parent (HCV1 [3]): 105 % of WT

wild-type HCV E1E2 (genotype 1a, strain H77) expression construct with C-terminal V5 epitope tag N548A
percent of parent (AR1A; read off a plot): 23 % of WT
percent of parent (AR1B): < 0 % of WT

wild-type HCV E1E2, plasmid H77c (no V5 tag) W712A
percent of parent (A4 [1]): 80 % of WT
percent of parent (AP33 [2]): 81 % of WT
percent of parent (HCV1 [3]): 82 % of WT

soluble WT E2c (E2 core domain) I622A; F627A
response [14]: 1.2 OD450
response (HCV1 [15]): 1.3 OD450
response [16]: 0.94 OD450

wild-type HCV E1E2 (genotype 1a, strain H77) expression construct with C-terminal V5 epitope tag Y632A
percent of parent (AR1A): < 0 % of WT

wild-type HCV E1E2 (genotype 1a, strain H77) expression construct with C-terminal V5 epitope tag T518A
percent of parent (AP33 [17]): 106 % of WT
percent of parent (AR1A; read off a plot): 100 % of WT
percent of parent (AR2A): 140 % of WT
percent of parent (HCV1 [4]): 100 % of WT

wild-type HCV E1E2 (genotype 1a, strain H77) expression construct with C-terminal V5 epitope tag G547A
percent of parent (A4 [18]): 74 % of WT
percent of parent (AR1A; read off a plot): 18 % of WT
percent of parent (AR1B; read off a plot): 22 % of WT
percent of parent (HCV1 [4]): 44 % of WT

wild-type HCV E1E2 (genotype 1a, strain H77) expression construct with C-terminal V5 epitope tag C503A
percent of parent (AR1A; read off a plot): 200 % of WT

wild-type HCV E1E2, plasmid H77c (no V5 tag) C272A
percent of parent (A4 [1]): 93 % of WT
percent of parent (AP33 [2]): 85 % of WT
percent of parent (HCV1 [3]): 98 % of WT

wild-type HCV E1E2, plasmid H77c (no V5 tag) D346A
percent of parent (A4 [1]): 95 % of WT
percent of parent (AP33 [2]): 100 % of WT
percent of parent (HCV1 [3]): 98 % of WT

wild-type HCV E1E2 (genotype 1a, strain H77) expression construct with C-terminal V5 epitope tag W437A
percent of parent (AP33 [17]): 77 % of WT
percent of parent (HCV1 [4]): 95 % of WT

soluble WT E2c (E2 core domain) I622A
response [14]: 1.5 OD450
response (HCV1 [15]): 1.3 OD450
response [16]: 1.4 OD450

wild-type HCV E1E2 (genotype 1a, strain H77) expression construct with C-terminal V5 epitope tag W549A
percent of parent (AR1A): < 0 % of WT
percent of parent (AR1B): < 0 % of WT

wild-type HCV E1E2 (genotype 1a, strain H77) expression construct with C-terminal V5 epitope tag G495A
percent of parent (AR1A; read off a plot): 26 % of WT
percent of parent (HCV1 [4]): 92 % of WT

wild-type HCV E1E2, plasmid H77c (no V5 tag) Y624A
percent of parent (A4 [1]): 43 % of WT
percent of parent (AP33 [2]): 38 % of WT

wild-type HCV E1E2 (genotype 1a, strain H77) expression construct with C-terminal V5 epitope tag L438A
percent of parent (AP33 [17]): 76 % of WT
percent of parent (HCV1 [4]): 75 % of WT

wild-type HCV E1E2, plasmid H77c (no V5 tag) K562A
percent of parent (A4 [1]): 77 % of WT
percent of parent (AP33 [2]): 75 % of WT
percent of parent (HCV1 [3]): 95 % of WT
